For two molecules, EC50 results are on record in patent publication US20220031842A1 (JIANGSU HENGRUI MEDICINE, published 2022).

The target of this assay is T1, Full length of LAG-3 (human LAG-3 over-expressed on CHO-S cells) (human, UniProt P18627 23-525).
T1 construct: also called LAG-3 over-expressing CHO-S cells; full-length LAG-3
T1 sequence: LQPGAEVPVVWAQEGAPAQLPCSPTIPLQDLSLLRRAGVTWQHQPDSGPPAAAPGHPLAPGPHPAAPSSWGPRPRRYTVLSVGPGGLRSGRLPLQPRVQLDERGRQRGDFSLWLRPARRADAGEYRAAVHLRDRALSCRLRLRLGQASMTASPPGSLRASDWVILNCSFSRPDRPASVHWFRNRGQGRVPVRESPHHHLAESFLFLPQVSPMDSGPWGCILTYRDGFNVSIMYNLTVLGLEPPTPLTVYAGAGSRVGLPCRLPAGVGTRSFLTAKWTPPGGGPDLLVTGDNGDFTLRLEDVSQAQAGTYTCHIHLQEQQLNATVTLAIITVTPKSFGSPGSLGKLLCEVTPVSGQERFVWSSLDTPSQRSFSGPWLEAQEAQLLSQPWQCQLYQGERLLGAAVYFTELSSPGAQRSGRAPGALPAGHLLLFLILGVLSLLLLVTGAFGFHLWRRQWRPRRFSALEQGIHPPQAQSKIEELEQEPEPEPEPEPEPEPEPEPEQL
Description: cell ELISA on fixed CHO-S cells overexpressing full-length human LAG-3. How it is done:
100 μl/well of cells were seeded into 96-well plate at a density of 4×10⁵/ml and incubated overnight. The supernatant was discarded, and the plate was washed three times with PBS, and was fixed with 4% PFA (100 μl/well) for half an hour at room temperature, and then the plate was washed three times with PBS. After discarding the liquid, the plate was blocked with 200 μl/well of blocking solution containing 5% skim milk (Bright Dairy, skim milk powder) diluted in PBS, and incubated at 37° C. for 2.5 hours. After blocking, the blocking solution was discarded and the plate was washed 5 times with PBST buffer (PH7.4 PBS containing 0.05% tween-20), added with 50 μl/well of various concentrations of antibodies to be tested (Hybridoma purified antibody or humanized antibody) which have been diluted with sample diluent, and then incubated in incubator at 37° C. for 1 h. The plate was washed 5 times with PBST after incubation, added with 100 μl/well of goat anti-mouse (Jackson Immuno Research, Cat No. 115-035-003) or goat anti-human secondary antibody (Jackson Immuno Research, Cat No. 109-035-003) labeled with HRP, diluted in sample diluent, and the plate was incubated at 37° C. for 1 h. […]
On the technique in general: In an ELISA, binding on a coated surface is turned into a signal by an enzyme label.

B1: mAb229 (antibody, V domains shown)
VH: QIQLVQSGPELKKPGETVKISCKASGYTFTTSGMSWVKQAPGKGLKWMGWINTYSGVPTYADDFKGRFAFSLETSASTAYLQINNLKNEDTATYFCARDNYDARDVYYYAMDYWGQGTSVTVSS
VL: DIQMTQSPASLSVSVGETVTITCRASENIYSNLAWYQQKQGKSPQLLVYAATNLADGVPSRFSGSGSGTQYSLKINSLQSEDFGSYYCQHFWITPWTFGGGTKLEIK
notes: Murine hybridoma antibody; also called LAG-3 antibody mAb229; hybridoma clone mAb229
Take B1: the EC50 came out at 0.191 nM.

B2: mAb303 (antibody, V domains shown)
VH: EVQLQQSGPVLVKPGASVKMSCKASGYTLTDYYMNWVKQSHGKSLEWIGVINPYNGDTAYNQKFKGKATLTVDKSSNTAYMEINSLTSEDSAVYYCTRDDGYYDYYFDVWGTGTTVTVSS
VL: DIQMTQSPSSLSASLGERVILTCRASQDIGSRLNWLQQGPDGTFKRLIYATSTLDSGVPKRFSGSRSGSDFSLTISSLESEDFVDYYCLQLASSPPTFGGGTKLEIK
notes: Murine hybridoma antibody; also called LAG-3 antibody mAb303; hybridoma clone mAb303
B2: it took 0.279 nM to reach a half-maximal effect (EC50).

In general, EC50 refers to the concentration that produces a half-maximal response.
